T1: FcγRIIa R (human, UniProt P12318 34-217)
T1 construct: extracellular domain; also called FcgRIIa R type; 2aR
T1 sequence (looked up): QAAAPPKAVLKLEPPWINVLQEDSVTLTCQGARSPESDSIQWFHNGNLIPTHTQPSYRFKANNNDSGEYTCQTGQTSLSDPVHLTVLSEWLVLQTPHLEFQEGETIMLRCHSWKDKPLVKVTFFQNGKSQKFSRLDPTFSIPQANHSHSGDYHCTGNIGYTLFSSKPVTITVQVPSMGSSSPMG

B1: GpH7-B3 variant A330_11K/GpL16-k0 (antibody, human IgG1, kappa)
heavy: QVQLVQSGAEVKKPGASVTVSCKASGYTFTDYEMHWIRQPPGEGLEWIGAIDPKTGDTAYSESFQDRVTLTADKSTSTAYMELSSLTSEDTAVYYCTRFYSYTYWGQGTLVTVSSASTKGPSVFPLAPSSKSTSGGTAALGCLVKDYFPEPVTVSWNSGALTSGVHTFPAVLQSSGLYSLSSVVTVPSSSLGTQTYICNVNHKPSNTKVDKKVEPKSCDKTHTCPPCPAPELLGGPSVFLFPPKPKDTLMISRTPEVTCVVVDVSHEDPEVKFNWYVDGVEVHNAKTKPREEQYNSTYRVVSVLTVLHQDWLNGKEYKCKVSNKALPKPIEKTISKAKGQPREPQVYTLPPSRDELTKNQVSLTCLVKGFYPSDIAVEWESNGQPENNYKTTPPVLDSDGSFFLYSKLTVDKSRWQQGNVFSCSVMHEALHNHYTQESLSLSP
light: DIVMTQSPLSLPVTPGEPASISCQASESLVHSNRNTYLHWYLQKPGQSPQLLIYKVSNRFSGVPDRFSGSGSGTDFTLKISRVEAEDVGVYYCSQNTHVPPTFGQGTKVEIERTVAAPSVFIFPPSDEQLKSGTASVVCLLNNFYPREAKVQWKVDNALQSGNSQESVTEQDSKDSTYSLSSTLTLSKADYEKHKVYACEVTHQGLSSPVTKSFNRGEC
notes: also called Ho Ab A330_11K
B2: GpH7-B3 variant A330_12R/GpL16-k0 (antibody, human IgG1, kappa)
heavy: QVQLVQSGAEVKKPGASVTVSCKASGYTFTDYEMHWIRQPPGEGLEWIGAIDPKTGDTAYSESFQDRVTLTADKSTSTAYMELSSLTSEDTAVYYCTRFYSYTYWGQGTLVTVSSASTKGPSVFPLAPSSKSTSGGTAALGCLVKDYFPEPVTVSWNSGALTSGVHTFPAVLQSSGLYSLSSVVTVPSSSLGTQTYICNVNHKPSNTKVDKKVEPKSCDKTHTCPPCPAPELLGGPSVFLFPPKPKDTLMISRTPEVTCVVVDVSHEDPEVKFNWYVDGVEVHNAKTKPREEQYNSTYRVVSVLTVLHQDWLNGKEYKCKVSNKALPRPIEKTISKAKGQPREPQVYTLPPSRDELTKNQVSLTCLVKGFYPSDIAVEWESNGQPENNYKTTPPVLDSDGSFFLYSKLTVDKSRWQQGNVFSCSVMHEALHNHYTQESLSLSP
light: DIVMTQSPLSLPVTPGEPASISCQASESLVHSNRNTYLHWYLQKPGQSPQLLIYKVSNRFSGVPDRFSGSGSGTDFTLKISRVEAEDVGVYYCSQNTHVPPTFGQGTKVEIERTVAAPSVFIFPPSDEQLKSGTASVVCLLNNFYPREAKVQWKVDNALQSGNSQESVTEQDSKDSTYSLSSTLTLSKADYEKHKVYACEVTHQGLSSPVTKSFNRGEC
notes: also called Ho Ab A330_12R
B3: GpH7-B3 variant A330_15Y/GpL16-k0 (antibody, human IgG1, kappa)
heavy: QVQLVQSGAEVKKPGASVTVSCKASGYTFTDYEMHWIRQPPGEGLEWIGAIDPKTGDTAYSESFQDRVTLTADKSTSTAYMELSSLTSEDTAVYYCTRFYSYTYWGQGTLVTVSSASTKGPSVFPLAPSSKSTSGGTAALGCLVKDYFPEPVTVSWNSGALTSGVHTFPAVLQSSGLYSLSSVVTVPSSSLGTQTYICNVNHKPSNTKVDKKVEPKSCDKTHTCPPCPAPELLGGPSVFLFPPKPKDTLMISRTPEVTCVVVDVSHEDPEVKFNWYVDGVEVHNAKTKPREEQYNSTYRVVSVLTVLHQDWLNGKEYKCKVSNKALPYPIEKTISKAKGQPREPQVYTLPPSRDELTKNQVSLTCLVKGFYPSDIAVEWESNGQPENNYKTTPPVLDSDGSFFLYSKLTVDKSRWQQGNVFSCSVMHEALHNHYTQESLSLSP
light: DIVMTQSPLSLPVTPGEPASISCQASESLVHSNRNTYLHWYLQKPGQSPQLLIYKVSNRFSGVPDRFSGSGSGTDFTLKISRVEAEDVGVYYCSQNTHVPPTFGQGTKVEIERTVAAPSVFIFPPSDEQLKSGTASVVCLLNNFYPREAKVQWKVDNALQSGNSQESVTEQDSKDSTYSLSSTLTLSKADYEKHKVYACEVTHQGLSSPVTKSFNRGEC
notes: also called Ho Ab A330_15Y
B4: GpH7-B3 variant A330_19Q/GpL16-k0 (antibody, human IgG1, kappa)
heavy: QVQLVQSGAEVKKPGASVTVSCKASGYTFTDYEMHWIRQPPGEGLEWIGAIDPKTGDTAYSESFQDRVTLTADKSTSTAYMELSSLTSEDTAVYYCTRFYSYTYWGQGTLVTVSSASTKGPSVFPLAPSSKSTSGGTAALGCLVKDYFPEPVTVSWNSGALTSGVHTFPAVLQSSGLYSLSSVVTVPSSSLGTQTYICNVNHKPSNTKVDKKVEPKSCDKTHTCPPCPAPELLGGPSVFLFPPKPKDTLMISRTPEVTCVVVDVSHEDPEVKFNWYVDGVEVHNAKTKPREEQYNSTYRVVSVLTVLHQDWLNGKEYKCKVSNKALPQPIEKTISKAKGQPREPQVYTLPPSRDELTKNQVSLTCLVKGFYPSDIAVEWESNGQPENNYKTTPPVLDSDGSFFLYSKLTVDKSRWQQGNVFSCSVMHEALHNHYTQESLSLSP
light: DIVMTQSPLSLPVTPGEPASISCQASESLVHSNRNTYLHWYLQKPGQSPQLLIYKVSNRFSGVPDRFSGSGSGTDFTLKISRVEAEDVGVYYCSQNTHVPPTFGQGTKVEIERTVAAPSVFIFPPSDEQLKSGTASVVCLLNNFYPREAKVQWKVDNALQSGNSQESVTEQDSKDSTYSLSSTLTLSKADYEKHKVYACEVTHQGLSSPVTKSFNRGEC
notes: also called Ho Ab A330_19Q
B5: GpH7-B3 variant E269_09D/GpL16-k0 (antibody, human IgG1, kappa)
heavy: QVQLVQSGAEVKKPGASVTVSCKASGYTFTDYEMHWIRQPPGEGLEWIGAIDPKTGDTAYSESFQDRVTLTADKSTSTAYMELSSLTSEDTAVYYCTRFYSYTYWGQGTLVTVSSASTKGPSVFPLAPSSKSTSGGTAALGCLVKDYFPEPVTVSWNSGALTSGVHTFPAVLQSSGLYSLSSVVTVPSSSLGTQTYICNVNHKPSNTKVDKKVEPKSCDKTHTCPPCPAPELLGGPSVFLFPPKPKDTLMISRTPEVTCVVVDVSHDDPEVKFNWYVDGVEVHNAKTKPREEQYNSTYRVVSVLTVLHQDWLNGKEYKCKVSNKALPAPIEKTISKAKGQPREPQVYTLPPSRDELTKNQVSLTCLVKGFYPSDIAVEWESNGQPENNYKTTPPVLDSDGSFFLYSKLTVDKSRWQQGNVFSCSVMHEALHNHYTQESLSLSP
light: DIVMTQSPLSLPVTPGEPASISCQASESLVHSNRNTYLHWYLQKPGQSPQLLIYKVSNRFSGVPDRFSGSGSGTDFTLKISRVEAEDVGVYYCSQNTHVPPTFGQGTKVEIERTVAAPSVFIFPPSDEQLKSGTASVVCLLNNFYPREAKVQWKVDNALQSGNSQESVTEQDSKDSTYSLSSTLTLSKADYEKHKVYACEVTHQGLSSPVTKSFNRGEC
notes: also called Ho Ab E269_09D
B6: GpH7-B3 variant E333_04F/GpL16-k0 (antibody, human IgG1, kappa)
heavy: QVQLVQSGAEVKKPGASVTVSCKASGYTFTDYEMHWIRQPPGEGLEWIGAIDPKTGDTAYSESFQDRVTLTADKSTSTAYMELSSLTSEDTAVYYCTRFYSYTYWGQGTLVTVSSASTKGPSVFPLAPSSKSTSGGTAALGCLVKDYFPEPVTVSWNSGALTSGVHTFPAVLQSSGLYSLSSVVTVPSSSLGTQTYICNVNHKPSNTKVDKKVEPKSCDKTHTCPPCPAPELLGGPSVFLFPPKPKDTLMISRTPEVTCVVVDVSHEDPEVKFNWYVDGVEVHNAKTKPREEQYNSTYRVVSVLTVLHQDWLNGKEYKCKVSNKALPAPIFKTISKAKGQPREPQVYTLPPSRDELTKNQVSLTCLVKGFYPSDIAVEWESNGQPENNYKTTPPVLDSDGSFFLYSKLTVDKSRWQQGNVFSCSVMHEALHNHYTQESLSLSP
light: DIVMTQSPLSLPVTPGEPASISCQASESLVHSNRNTYLHWYLQKPGQSPQLLIYKVSNRFSGVPDRFSGSGSGTDFTLKISRVEAEDVGVYYCSQNTHVPPTFGQGTKVEIERTVAAPSVFIFPPSDEQLKSGTASVVCLLNNFYPREAKVQWKVDNALQSGNSQESVTEQDSKDSTYSLSSTLTLSKADYEKHKVYACEVTHQGLSSPVTKSFNRGEC
notes: also called Ho Ab E333_04F
B7: GpH7-B3 variant E333_05P/GpL16-k0 (antibody, human IgG1, kappa)
heavy: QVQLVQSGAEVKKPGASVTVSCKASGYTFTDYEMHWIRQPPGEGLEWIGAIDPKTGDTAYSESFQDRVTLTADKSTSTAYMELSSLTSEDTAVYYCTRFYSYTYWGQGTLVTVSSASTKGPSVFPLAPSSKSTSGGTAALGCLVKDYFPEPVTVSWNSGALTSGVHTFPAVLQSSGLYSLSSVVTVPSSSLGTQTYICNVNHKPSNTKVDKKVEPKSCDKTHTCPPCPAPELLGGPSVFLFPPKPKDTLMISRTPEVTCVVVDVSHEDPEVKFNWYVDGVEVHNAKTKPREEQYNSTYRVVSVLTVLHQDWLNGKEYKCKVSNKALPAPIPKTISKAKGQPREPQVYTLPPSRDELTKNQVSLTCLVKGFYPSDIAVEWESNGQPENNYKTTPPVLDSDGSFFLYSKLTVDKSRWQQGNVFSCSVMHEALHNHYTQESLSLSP
light: DIVMTQSPLSLPVTPGEPASISCQASESLVHSNRNTYLHWYLQKPGQSPQLLIYKVSNRFSGVPDRFSGSGSGTDFTLKISRVEAEDVGVYYCSQNTHVPPTFGQGTKVEIERTVAAPSVFIFPPSDEQLKSGTASVVCLLNNFYPREAKVQWKVDNALQSGNSQESVTEQDSKDSTYSLSSTLTLSKADYEKHKVYACEVTHQGLSSPVTKSFNRGEC
notes: also called Ho Ab E333_05P
B8: GpH7-B3 variant E333_07I/GpL16-k0 (antibody, human IgG1, kappa)
heavy: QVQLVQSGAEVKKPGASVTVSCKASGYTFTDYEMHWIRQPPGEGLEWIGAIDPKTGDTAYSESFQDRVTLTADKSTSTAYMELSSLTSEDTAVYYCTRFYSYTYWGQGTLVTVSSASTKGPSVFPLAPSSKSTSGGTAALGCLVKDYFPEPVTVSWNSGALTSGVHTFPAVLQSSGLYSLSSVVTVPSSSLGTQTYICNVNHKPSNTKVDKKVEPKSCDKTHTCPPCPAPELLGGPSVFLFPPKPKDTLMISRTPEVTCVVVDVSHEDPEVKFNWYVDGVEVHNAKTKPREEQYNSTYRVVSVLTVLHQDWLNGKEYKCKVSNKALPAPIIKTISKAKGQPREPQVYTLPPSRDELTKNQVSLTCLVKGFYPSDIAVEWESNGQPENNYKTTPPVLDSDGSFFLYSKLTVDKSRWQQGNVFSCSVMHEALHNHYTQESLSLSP
light: DIVMTQSPLSLPVTPGEPASISCQASESLVHSNRNTYLHWYLQKPGQSPQLLIYKVSNRFSGVPDRFSGSGSGTDFTLKISRVEAEDVGVYYCSQNTHVPPTFGQGTKVEIERTVAAPSVFIFPPSDEQLKSGTASVVCLLNNFYPREAKVQWKVDNALQSGNSQESVTEQDSKDSTYSLSSTLTLSKADYEKHKVYACEVTHQGLSSPVTKSFNRGEC
notes: also called Ho Ab E333_07I
B9: GpH7-B3 variant E333_08L/GpL16-k0 (antibody, human IgG1, kappa)
heavy: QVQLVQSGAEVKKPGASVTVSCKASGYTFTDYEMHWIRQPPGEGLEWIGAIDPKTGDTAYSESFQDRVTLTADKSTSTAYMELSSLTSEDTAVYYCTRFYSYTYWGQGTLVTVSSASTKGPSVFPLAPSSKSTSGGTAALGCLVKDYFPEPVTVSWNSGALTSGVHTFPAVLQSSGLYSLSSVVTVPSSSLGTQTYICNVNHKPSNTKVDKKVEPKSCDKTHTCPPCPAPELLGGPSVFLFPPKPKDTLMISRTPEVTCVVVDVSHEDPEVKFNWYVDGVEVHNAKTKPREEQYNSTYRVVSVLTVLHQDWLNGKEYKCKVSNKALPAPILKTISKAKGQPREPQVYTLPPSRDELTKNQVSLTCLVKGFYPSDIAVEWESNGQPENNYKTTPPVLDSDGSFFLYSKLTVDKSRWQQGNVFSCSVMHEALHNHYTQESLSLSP
light: DIVMTQSPLSLPVTPGEPASISCQASESLVHSNRNTYLHWYLQKPGQSPQLLIYKVSNRFSGVPDRFSGSGSGTDFTLKISRVEAEDVGVYYCSQNTHVPPTFGQGTKVEIERTVAAPSVFIFPPSDEQLKSGTASVVCLLNNFYPREAKVQWKVDNALQSGNSQESVTEQDSKDSTYSLSSTLTLSKADYEKHKVYACEVTHQGLSSPVTKSFNRGEC
notes: also called Ho Ab E333_08L

These binders were tested against T1, FcγRIIa R (assay: SPR Biacore; vs GpH7-B3/GpL16-k0 =100).
Experimental: Analysis of interaction between objective antibody and the FcγR was carried out using Biacore T100 (GE Healthcare). HBS-EP+ (GE Healthcare) was used as the running buffer, and the measurement temperature was set to 25° C. Chips produced by immobilizing the antigen peptide by the amine coupling method to a Series S Sencor Chip CM5 (GE Healthcare), or alternatively, chips produced by allowing preliminarily biotinylated antigen peptides to interact with and immobilize onto a Series S Sensor Chip SA (certified) (GE Healthcare) were used. Antibodies of interest were captured onto an antigen peptide-immobilized chip, and allowed to interact to each FcγR diluted with running buffer. To regenerate and repeatedly use the chip, the antibodies captured on the chip were washed off by reacting 10 mM glycine-HCl, pH 1.5.
The FcγR-binding activity of each antibody was assessed primarily using as an indicator the FcγR-binding activity and dissociation constant for FcγR.
In the case of B1, the Ho/Con_2aR is reported as 106 % of control. B2 was tested, and the Ho/Con_2aR was 101 % of control. For B3, the Ho/Con_2aR was 87.5 % of control. For B4, the Ho/Con_2aR was 99.1 % of control. For B5, the Ho/Con_2aR was 103 % of control. With B6 the Ho/Con_2aR was 92.4 % of control. With B7 the Ho/Con_2aR was 99.9 % of control. With B8 the Ho/Con_2aR was 98.3 % of control. With B9 the Ho/Con_2aR was 97.1 % of control.

Source: US20180155451A1 (published 2018)
